Target: T1, CD3 epsilon homodimer protein (UniProt P07766 23-126)
T1 construct: also called CD3 (CD3 epsilon)
Test: SPR, CD3 epsilon homodimer on chip, one-arm antibody as analyte;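 further: surface plasmon resonance at 25 °C with CD3 epsilon homodimer amine-coupled to a CM4 sensor chip, antibody injected as analyte, HBS-EP+ as running buffer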

T1 sequence (P07766 23-126): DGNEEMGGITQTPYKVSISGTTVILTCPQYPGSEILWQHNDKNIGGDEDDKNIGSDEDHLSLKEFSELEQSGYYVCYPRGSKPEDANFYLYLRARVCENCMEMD

KD ratio (KD of CE115HA000/KD of altered form) | Binder
0.65 | CE115HA000 E61Q (antibody, human IgG1, kappa, L234A L235A, N297A, name in Kabat numbering, one-arm antibody) heavy: QVQLVESGGGVVQPGRSLRLSCAASGFTFSNAWMHWVRQAPGKGLEWVAQIKAKSNNYATYYAQSVKGRFTISRDDSKNSLYLQMNSLKTEDTAVYYCRYVHYGAYYGVDAWGQGTTVTVSSASTKGPSVFPLAPSSKSTSGGTAALGCLVKDYFPEPVTVSWNSGALTSGVHTFPAVLQSSGLYSLSSVVTVPSSSLGTQTYICNVNHKPSNTKVDKKVEPKSCDKTHTCPPCPAPEAAGGPSVFLFPPKPKDTLMISRTPEVTCVVVDVSHEDPEVKFNWYVDGVEVHNAKTKPREEQYASTYRVVSVLTVLHQDWLNGKEYKCKVSNKALPAPIEKTISKAKGQPREPQVYTLPPSRCELTKNQVSLSCAVKGFYPSDIAVEWESNGQPENNYKTTPPVLDSDGSFFLVSKLTVDKSRWQQGNVFSCSVMHEALHNHYTQKSLSLSPDYKDDDDK EPKSSDKTHTCPPCPAPELLGGPSVFLFPPKPKDTLMISRTPEVTCVVVDVSHEDPEVKFNWYVDGVEVHNAKTKPREEQYNSTYRVVSVLTVLHQDWLNGKEYKCKVSNKALPAPIEKTISKAKGQPREPQVCTLPPSRDELTKNQVSLWCLVKGFYPSDIAVEWESNGQPENNYKTTPPVLDSDGSFFLYSKLTVDKSRWQQGNVFSCSVMHEALHNRYTQKSLSLSP light: DIVMTQSPLSLPVTPGEPASISCRSSQSLVHSNRNTYLHWYQQKPGQAPRLLIYKVSNRFSGVPDRFSGSGSGTDFTLKISRVEAEDVGVYYCGQGTQVPYTFGQGTKLEIKRTVAAPSVFIFPPSDEQLKSGTASVVCLLNNFYPREAKVQWKVDNALQSGNSQESVTEQDSKDSTYSLSSTLTLSKADYEKHKVYACEVTHQGLSSPVTKSFNRGEC
2.94 | CE115HA000 F29V (antibody, human IgG1, kappa, L234A L235A, N297A, name in Kabat numbering, one-arm antibody) heavy: QVQLVESGGGVVQPGRSLRLSCAASGFTVSNAWMHWVRQAPGKGLEWVAQIKAKSNNYATYYAESVKGRFTISRDDSKNSLYLQMNSLKTEDTAVYYCRYVHYGAYYGVDAWGQGTTVTVSSASTKGPSVFPLAPSSKSTSGGTAALGCLVKDYFPEPVTVSWNSGALTSGVHTFPAVLQSSGLYSLSSVVTVPSSSLGTQTYICNVNHKPSNTKVDKKVEPKSCDKTHTCPPCPAPEAAGGPSVFLFPPKPKDTLMISRTPEVTCVVVDVSHEDPEVKFNWYVDGVEVHNAKTKPREEQYASTYRVVSVLTVLHQDWLNGKEYKCKVSNKALPAPIEKTISKAKGQPREPQVYTLPPSRCELTKNQVSLSCAVKGFYPSDIAVEWESNGQPENNYKTTPPVLDSDGSFFLVSKLTVDKSRWQQGNVFSCSVMHEALHNHYTQKSLSLSPDYKDDDDK EPKSSDKTHTCPPCPAPELLGGPSVFLFPPKPKDTLMISRTPEVTCVVVDVSHEDPEVKFNWYVDGVEVHNAKTKPREEQYNSTYRVVSVLTVLHQDWLNGKEYKCKVSNKALPAPIEKTISKAKGQPREPQVCTLPPSRDELTKNQVSLWCLVKGFYPSDIAVEWESNGQPENNYKTTPPVLDSDGSFFLYSKLTVDKSRWQQGNVFSCSVMHEALHNRYTQKSLSLSP light: DIVMTQSPLSLPVTPGEPASISCRSSQSLVHSNRNTYLHWYQQKPGQAPRLLIYKVSNRFSGVPDRFSGSGSGTDFTLKISRVEAEDVGVYYCGQGTQVPYTFGQGTKLEIKRTVAAPSVFIFPPSDEQLKSGTASVVCLLNNFYPREAKVQWKVDNALQSGNSQESVTEQDSKDSTYSLSSTLTLSKADYEKHKVYACEVTHQGLSSPVTKSFNRGEC

Reference: patent US20210388087A1 (Chugai, published 2021)
